{"source": "paper PMC3547035", "about": "“Investigating the Antiproliferative Activity of High Affinity DNA Aptamer on Cancer Cells”", "key": {"VEGF165": {"target": "VEGF165 (Homo sapiens, UniProt P15692-4 27-191)", "sequence (P15692 other isoform, or with tags, fused parts or gaps)": "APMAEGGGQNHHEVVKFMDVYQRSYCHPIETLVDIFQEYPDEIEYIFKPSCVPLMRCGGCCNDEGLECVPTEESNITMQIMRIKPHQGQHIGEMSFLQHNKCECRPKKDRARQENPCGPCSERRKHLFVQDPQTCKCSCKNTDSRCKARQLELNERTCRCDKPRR", "assay": "SPR; SPR BIAcore 2000, CM5 chip, immobilized protein ~200 RU, PBS + Tween-20 running buffer (pH not stated), 25 C, aptamer 0.2-100 nM, 1:1 Langmuir fit", "conditions": "protein: recombinant; tags: carrier free; chain copies: 2; hairpin (CD)"}, "VEGF121": {"target": "VEGF121 (Homo sapiens, UniProt P15692-9 27-147)", "sequence (P15692 other isoform, or with tags, fused parts or gaps)": "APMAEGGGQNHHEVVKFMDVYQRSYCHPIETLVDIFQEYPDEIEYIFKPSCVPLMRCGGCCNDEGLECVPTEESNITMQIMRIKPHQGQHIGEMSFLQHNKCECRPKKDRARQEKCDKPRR", "assay": "SPR; SPR BIAcore 2000, CM5 chip, immobilized protein ~200 RU, PBS + Tween-20 running buffer (pH not stated), 25 C, aptamer 0.2-100 nM, 1:1 Langmuir fit", "conditions": "protein: recombinant; tags: carrier free; chain copies: 2; hairpin (CD)"}}}
{"binder": "CAATTGGGCCCGTCCGTATGGTGGGT (XNA, phosphorothioate linkages C1*A2 and G25*T26)", "note": "[PS-modified SL2-B]", "values": [{"measurement": "Kd", "setting": "VEGF165", "value": "0.56 ± 0.44", "unit": "nM"}, {"measurement": "Kd", "setting": "VEGF121", "value": "17 ± 1.24", "unit": "µM"}]}
